Test results taken from the nanobody polyreactivity screen of Harvey et al. (2022).

Assay: yeast display, Sf9 membrane polyspecificity reagent, FACS + sequencing; frameworks hold sequencing errors
Procedure, shortened: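 In a synthetic yeast display library (Saccharomyces cerevisiae BJ5465), nanobody expression was induced with galactose for 36–48 hours. FACS gates were set low and high (top ~1%) using anti-HA fluorescence for expression and streptavidin fluorescence for binding of the Sf9 membrane reagent. Each polyreactivity label is drawn from the gate of origin.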
With “QDHLVESGGGLVQAGGSLRLICAANGRTFRRYAMGWYRQAPGKERELVATITSGGSTNYADSVKGRFTISRDNAKNTVYLQMNSLKPQDTAVYYCAARHGESHYDYWGQGTQVTVSS” the “polyreactivity (PSR sort gate)” value was “low polyreactivity”.
In the case of “QDHLVESGGGLVQAGGSLRLSCAASGRIFGGYVMGRYRQAPGTERELVAAINGGGGSTYYADSVKGRFTISRDNAKNTVYLQMNSLKPEDTAVYYCMLVKRSQRKSTIDFDYWGQGTQVTVSS”, the “polyreactivity (PSR sort gate)” value is reported as “high polyreactivity”.
With “QDHLVESGGGLVQAGGSLSLSCAASGIIFYGNAMGLSRQAHGKDRELVAAISWSGSSTYYADSVKGRFTISRDNAKNTVYLQMNSLKPEDNAVYYCNKATSSVRYLKYYYWGQGTQVTVSS” the “polyreactivity (PSR sort gate)” value was “high polyreactivity”.
For “QDHLVETGGGLVQAGGSLRLSCAASGRTLYINAMGWYRQAPGKERELVAAIRRGGSTYADSVKGRFTISRDNAKNTVYLQMNRLKPEDTAVYYCAADVPSGKYKGDYWGQGTQVTVSS”, the “polyreactivity (PSR sort gate)” value was “high polyreactivity”.
For “QDKLVDSGGGLVQAGGSLRLSCAASGFIFGKYTMVWYRQAPGKERELVAAINRRGGSTYYADSVKGRFTISRDNAKNTVYLQMNSLKPEDTAVYYCAKDGYSLDRYYWGQGTQVTVSS”, the “polyreactivity (PSR sort gate)” value was “high polyreactivity”.
For “QDKLVESGGGLVKAGGSLRLSCAASGSIFATYAMVWYRQAPGKERELVAAISKSTDSTYYADSVKGRFTISRDNAKNNVYLQMNSQKPEDTAVYYCAAVQRYKGLQDDSWGQGTQVTVSS”, the “polyreactivity (PSR sort gate)” value was “high polyreactivity”.
In the case of “QDPLVESGGGVVQAGGSLRLSCAASGSTFSDYAMGWYRQAPGKERELVAAISVSDGSTYYADSVKGRFTISRDIAKNSVYLQMNSLKPEETAVYYCAAEYPYFVYSYFRFDYWGQGTQVTVSS”, the “polyreactivity (PSR sort gate)” value is reported as “low polyreactivity”.
For “QDQHVDSGGGLVQAGGSLRLSCAASGFIFPQNAMGWYRQAPGKERELVAAISKRGGSTYYADSVKGRFTISRDNAKNTVYLQMNSLNPEDTAVYYCAVRYYFYRPGGYDYWGQGTQLTVSS”, the “polyreactivity (PSR sort gate)” value was “high polyreactivity”.
In the case of “QDQHVESGGCLVQAGGSLRLSCAASGFTFYANAMGWYRQAPGKERELVAAISRGVSTTYADSVKGRFTISRDNSKNTVYLQMNSLTPEDTAVYYCAADGKVIAQGYDYWGQGTQVTVST”, the “polyreactivity (PSR sort gate)” value is reported as “low polyreactivity”.
With “QDQHVESGGGFVQAGGSLRLICAASGYTFYGNPMGWYRQAPGKEREFVASINYNDDSTYYADSVKGRFTISLDNAKNTDYLQMNSLKPEDTAVYYCAAEYRTRGYHWIYYWGQGTQVTVSS” the “polyreactivity (PSR sort gate)” value was “low polyreactivity”.
For “QDQHVESGGGLVQAGCSLRLSCAASGFIFTYYAMGWYRQAPGKERELVAAISRSGGNTYYADSVKGRFTISRDNAKNTVYFQMYSLKREDTAVYFCAAETRRGGYWGYEYYYWGQGTQVTVSS”, the “polyreactivity (PSR sort gate)” value was “high polyreactivity”.
In the case of “QDQHVESGGGLVQAGCSLRLSCAASGSIFKDNAMGWYRPAPCKEWELVADITIGDSTTYEDSVKGRFTISRDNAKNTVYLHMNSLKPEDTAVYYCAADNYIIKYDYWDYDYCGQGTQVTVSS”, the “polyreactivity (PSR sort gate)” value is reported as “low polyreactivity”.
For “QDQHVESGGGLVQAGGILRLICAASGPIFGYNAMGWYRQEPGQERELVAAINSDGSKNYADSVKGRFTISRDNAKITVYLQMISLKPEDTAVYYCNQLLYPVGDYEFWGQGTQVTVSS”, the “polyreactivity (PSR sort gate)” value was “low polyreactivity”.
In the case of “QDQHVESGGGLVQAGGRLRLSCAASGRIFSFYVMGWYIQAPGKERELVASISLSGGSTYYADSVKGRFTFSRDNAKNTVYLQMNSLKPEDTEVYYCNAVLYARQRERWARYDYWGQGTQVTVSS”, the “polyreactivity (PSR sort gate)” value is reported as “high polyreactivity”.
In the case of “QDQHVESGGGLVQAGGSLRLICAASGFIFVTNTMGWYRQAPGTEWELVAAIRWSGGTTYYADSVKGRFTISRDNAMQTVYLQMNSLKPEDTAFYYCAARYGSRSSYLAYYYWGQGTQVTVSS”, the “polyreactivity (PSR sort gate)” value is reported as “high polyreactivity”.
In the case of “QDQHVESGGGLVQAGGSLRLSCAASGIILSAYAMGWYRQAPGTERELVARISRSGGRTYYADSVKGRFTISRDNAKNTVYLQMNSLKPEDTAVYYCAADYSYGFGLYFGYGYWGQGTQVTVSS”, the “polyreactivity (PSR sort gate)” value is reported as “high polyreactivity”.
For “QDQHVESGGGLVQAGGSLRLSCAASGLTFTLYAMGWYRKAPGKERELVAAITRSGGSTSYADSVKGRFTISRDYAKNTVYLQMNSLKPEDTAVYYCNADSPGYTAVRLVEFDYWGQGTQVTVSS”, the “polyreactivity (PSR sort gate)” value was “low polyreactivity”.
For “QDQHVESGGGLVQAGGSLRLSCAASGLTSLGNAMGWYRQAPGKERELVAAITRTGTSTYYADSVKGRFTISRDNAKNTVYLQMNSLKPEDTAVYYCAADWWYGYSNYDYWGQGTQVTVSS”, the “polyreactivity (PSR sort gate)” value was “low polyreactivity”.
For “QDQHVESGGGLVQAGGSLRLSCAASGRTIGYNAMGLYRQAPGKERELVAAITSSSGSTYYADSVKGRFTISRDNAKNTVYLQMNSLKPEDRAVYYCAAYFRRLLYDYWGQGTHVTVSS”, the “polyreactivity (PSR sort gate)” value was “high polyreactivity”.
With “QDQHVESGGGLVQAGGSLRLSCAASGSTFDAYAMGWYRQAPGKERELVAAISWSDTTTYYADSVKGRFTISRDNAKNTVYLQMNSLKPEDTAVYYCADEYYFTEGSYTSDYWGQGTQVTVSS” the “polyreactivity (PSR sort gate)” value was “high polyreactivity”.
In the case of “QDQHVESGGGLVQAGGSLRLSCAASGSTFDWNAMGWSRQAPGKERELVAGISWNGGSTYYADSVKGRFTISRDNAKNTVYLQMNSLKPEDTAVYYCNVVYGTTEYDYWGQGTQVTVSS”, the “polyreactivity (PSR sort gate)” value is reported as “low polyreactivity”.
With “QDQHVESGGGLVQAGGSLRLSCDASGITFWYYAMGWYRQAPGKERELVAAISRRGGATYYADSVKGRFTISRDNAKNTVYLQLNSLKPEDTAVYYCNALLAGRRVARGYDSWGQGTQVTVSS” the “polyreactivity (PSR sort gate)” value was “high polyreactivity”.
In the case of “QDQHVESGGGLVQAGGTLRISCAASGFTFYVYAMGWYRQAPGKEMELVASISKSGGSTYYADSVKGRFTITRDNAKNTVFLQMNSLKTVDTAVYYCAVYDKRSCYRGGHRYNSCGQGTQVTVSS”, the “polyreactivity (PSR sort gate)” value is reported as “high polyreactivity”.
In the case of “QDQHVESVGGLVQAGGSLRLSCAASGSIIPLYAMGWYRQAPGKERELVAAISSRGGSTYYADSVKGRFSISRDNAKNTVYLQMKSLKPEDTAVYYCAVDTPSPSRGPRFNYWGQGTQVTVSS”, the “polyreactivity (PSR sort gate)” value is reported as “high polyreactivity”.
For “QDQIVESGGGLVQAGGSLRLSCAASGSIFVIKAMGWYRQAPGKERELVASIRGRTGSTNYADSVKGRFTISRDNAKNTVYLQMNSLKPVDTAVYYGAADRKGPFDYWGLGTQVTVSS”, the “polyreactivity (PSR sort gate)” value was “high polyreactivity”.
In the case of “QDQIVESGGGLVQAGGSLRLSCAASGSIIWGNALGWYSQAPGKERELVAAISWGGGRTYYADSVKGRFTLSRDNAKNTVYLQMNSLKPEDTAVYYCNTRYPYVVSTGYDYWGQGTQVTVSS”, the “polyreactivity (PSR sort gate)” value is reported as “high polyreactivity”.
For “QDQLEESGGGLDQAGCSLRLSCAASGFTFNYYTMGWYRQAPVKERELVAVITGGGGSTYYADSVKGRFTISRDNAKNTVYLQMNSLKPEDTAVYYCAAYWGGWSFRYLYDYWGQGTQVTGSS”, the “polyreactivity (PSR sort gate)” value was “high polyreactivity”.
For “QDQLEESGGGLVQAGGSLRLSCAASGFTFHINSMGWDREAPGKEREMVAAITYSGGSTYYADSVKGRFTISRDPAKNTVYLQMNCLKPEHTAVDYCATTWYFVASWFVAIYVYWGQGTQVTVSS”, the “polyreactivity (PSR sort gate)” value was “low polyreactivity”.
For “QDQLEESGGGLVQAGGSLRLSCAASGLTFIQYALGWYRQAPGKERELVAAINSGASTRYADSEKGRFTISRDNAMNTVYLQMNSLKPEDTAVYYCNARLRRYTNRYYKYYYWGQGTLVTVSS”, the “polyreactivity (PSR sort gate)” value was “high polyreactivity”.
For “QDQLEESGGGLVQAGGSLRLSCAASGSTFSYYTMGWYRQGPGKETELVAAISSGGSTYADSVKGRFTISRDNAKYTVYLQKNSLKPEDTAVYYCAVVGFDYGPSQALDDWGQGTQVTVSS”, the “polyreactivity (PSR sort gate)” value was “low polyreactivity”.
In the case of “QDQLEESGGGLVQAGGSLRLSSADSGRIFYSYAMGWYRQAPGKERELVAAINSGDRTNYADSVKGRFTISRDNAKNTVYLQMNSLKPEDTAVYYCATRWFAFPWDEYNYWGQGTQGTVSS”, the “polyreactivity (PSR sort gate)” value is reported as “low polyreactivity”.
In the case of “QDQLEESVGGLVQAGGSLRLSCAASGRIFVYNAMGWYRQAPGKERELVAAISKGGGSTYYADSVKGRFTISRDNAKNTVYLQMNSLKPEDTAVYYCAAVVSGRYWGYYSWGQGTQVTVSS”, the “polyreactivity (PSR sort gate)” value is reported as “high polyreactivity”.
For “QDQLGESGGGLVQAGGSLRLSCAASGSTFYAYAMGWYRQAPGKERELVATISWSGGSTYADCVKGRFTISRDNAKNTVYLQMNSLKPEDTPVYYCNAAGAFYPTQVHPGYTLWSYDYWGQGTQVTVSS”, the “polyreactivity (PSR sort gate)” value was “low polyreactivity”.
With “QDQLLESVGGLVQAGGSLRLSCAATGSTFHRSVMGSYRQAPGKEREMVAVINSTGGSTYYADSVKGRFTISLDNAKNTVYLQMNSVKPEDSAVYYFAADLYSIEYETAYRGYEYWGQGTQVTVSS” the “polyreactivity (PSR sort gate)” value was “low polyreactivity”.
With “QDQLVDSGGGLVQAGGSLRLLCAPSGRTFGVYAMGRYIQAPGKERELVAAISRDGGSTYYADSVKGRFTISRDNAKNTVYLQMNSLIPEDTAVYYCNTDWRYRYGYWGQGTQVTVSS” the “polyreactivity (PSR sort gate)” value was “high polyreactivity”.
With “QDQLVDSGGGLVQAGGSLRLSCAASGFTFSLNTMGWYRQAPGKERELVAAINSGDSTYADSVKGRFTISRDNAKNTVYLQMNSLKPEETAVYYCNADPDWWYPYNYWGQGTQVTVSS” the “polyreactivity (PSR sort gate)” value was “low polyreactivity”.
For “QDQLVDSGGGLVQAGGSLRLSCAASGRIFGYNSMGWYRQAPGKERELVASISSDGRTYYADSVKGRFTISRDNAKNTVYLQMNSLKPEDTAVYYCAAKEWYFTTWYTYYERDYWGQGTQVTLSS”, the “polyreactivity (PSR sort gate)” value was “high polyreactivity”.
With “QDQLVDSGGGLVQAGGSLRLSCAASGRIFSGNGMGWYSPAPGKERELVASISSGGRTYYADSVKGRFTISRDNAKITVYLQMNSLKPEDTAVYYCNRVASVRARDYDYWGQGTQVTVSS” the “polyreactivity (PSR sort gate)” value was “high polyreactivity”.
With “QDQLVDSGGGLVQAGGSLRLSCAASGRIIGYNAMVWYRQGPGKERELVAAITTSGGSTYYADSVKGRFTISSDNAKNTVYLQMNSLKPVDTAVYYCARDSLQVFYPYASDDYWGQGTQVTVSS” the “polyreactivity (PSR sort gate)” value was “low polyreactivity”.
For “QDQLVDSGGGLVQAGGSLRLSCAASGRTFGYYAMGWYRQAPGKERELVAAISISTGRTYYADSVKGRFTISRDNAKNTVYLQMNSLKPEDTAVYYCAAYYYGGRYHSEYDYWGQGTQVTVSS”, the “polyreactivity (PSR sort gate)” value was “high polyreactivity”.
In the case of “QDQLVDSGGGLVQAGGSLRLSCAASGRTIISYAMGRYRPAPGKERELVATITRDGRTNYADSVKGRFTISRDNAKNTVYLQMNSLNPEDTAVYYCNADSRYRYDYWGQGSQVTVSS”, the “polyreactivity (PSR sort gate)” value is reported as “low polyreactivity”.
In the case of “QDQLVDSGGGLVQAGGSLRLSCAASGSNFCGKAMGWYRQAPGKEREFVAAITRSGGSTYYADSVKGRFTISRDNAKNTVYLQMNSLKPEDTAVYYCNRDYAFKHHRAGYGYWGQGTLVTVSS”, the “polyreactivity (PSR sort gate)” value is reported as “low polyreactivity”.
In the case of “QDQLVDSGGGLVQAGGSLRLSCAASGSTFGPYPMGWYRQAPGKERELVATISSGGSTYYADSVKGRFTISRDNAKNTVYLQMNSLKPEDTSVYDCAARYWSIYDYWGQGTQVTVSS”, the “polyreactivity (PSR sort gate)” value is reported as “low polyreactivity”.
